Assay results as given in article PMC11077064, “The origin recognition complex requires chromatin tethering by a hypervariable intrinsically disordered region that is functionally conserved from sponge to man”.

Assays:
[1] = target: T1, DmOrc1 IDR delta P (Drosophila melanogaster, UniProt O16810 187-549, S263A;S293A;T304A;T341A;T346A;T401A;T419A;T439A;T463A;S481A;T489A;T505A;T516A;T5 …); test: EMSA; 600 nM; EMSA: 50 mM HEPES pH 7.5, 150 mM K-glutamate, 10% glycerol, 1 mM BME, 2 nM DNA, RT 20 min, 1% agarose; FP: same with 150 or 300 mM K-glutamate, 5 mM MgOAc, 0 or 1 mM ATP, RT 30 min; details: protein: recombinant; blunt (60-bp duplex)
T1 sequence: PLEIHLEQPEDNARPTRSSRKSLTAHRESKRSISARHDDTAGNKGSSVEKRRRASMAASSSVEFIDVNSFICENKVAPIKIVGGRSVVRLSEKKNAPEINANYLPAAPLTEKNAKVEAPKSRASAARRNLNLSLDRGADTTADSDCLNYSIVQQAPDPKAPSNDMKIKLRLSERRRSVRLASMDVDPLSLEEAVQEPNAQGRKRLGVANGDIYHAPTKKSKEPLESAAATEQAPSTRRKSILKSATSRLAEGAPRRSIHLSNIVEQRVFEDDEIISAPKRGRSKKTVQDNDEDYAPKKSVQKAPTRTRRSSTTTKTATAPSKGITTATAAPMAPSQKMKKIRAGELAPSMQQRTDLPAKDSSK

[2] = target: T2, DmOrc1 IDR (Drosophila melanogaster, UniProt O16810 187-549); test: EMSA; no ATP; text says FITC, legend Cy5; EMSA: 50 mM HEPES pH 7.5, 150 mM K-glutamate, 10% glycerol, 1 mM BME, 2 nM DNA, RT 20 min, 1% agarose; FP: same with 150 or 300 mM K-glutamate, 5 mM MgOAc, 0 or 1 mM ATP, RT 30 min; details: protein: recombinant; tags: His6-MBP removed by TEV; blunt (60-bp duplex)
T2 sequence: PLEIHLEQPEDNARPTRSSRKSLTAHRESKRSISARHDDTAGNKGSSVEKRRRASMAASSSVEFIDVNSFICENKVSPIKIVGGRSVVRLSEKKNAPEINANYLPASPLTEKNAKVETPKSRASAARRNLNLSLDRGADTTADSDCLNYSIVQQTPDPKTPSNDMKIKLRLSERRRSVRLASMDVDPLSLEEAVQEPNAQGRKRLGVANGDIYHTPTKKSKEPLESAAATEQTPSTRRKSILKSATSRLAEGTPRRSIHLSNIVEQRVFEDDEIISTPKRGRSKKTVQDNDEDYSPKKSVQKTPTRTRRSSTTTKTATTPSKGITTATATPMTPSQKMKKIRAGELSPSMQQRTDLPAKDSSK

[3] = target: T3, DmOrc1 IDR delta BP (Drosophila melanogaster, UniProt O16810 187-549, del520-533); test: EMSA; text says FITC, legend Cy5; EMSA: 50 mM HEPES pH 7.5, 150 mM K-glutamate, 10% glycerol, 1 mM BME, 2 nM DNA, RT 20 min, 1% agarose; FP: same with 150 or 300 mM K-glutamate, 5 mM MgOAc, 0 or 1 mM ATP, RT 30 min; details: protein: recombinant; tags: His6-MBP removed by TEV; blunt (60-bp duplex)
T3 sequence: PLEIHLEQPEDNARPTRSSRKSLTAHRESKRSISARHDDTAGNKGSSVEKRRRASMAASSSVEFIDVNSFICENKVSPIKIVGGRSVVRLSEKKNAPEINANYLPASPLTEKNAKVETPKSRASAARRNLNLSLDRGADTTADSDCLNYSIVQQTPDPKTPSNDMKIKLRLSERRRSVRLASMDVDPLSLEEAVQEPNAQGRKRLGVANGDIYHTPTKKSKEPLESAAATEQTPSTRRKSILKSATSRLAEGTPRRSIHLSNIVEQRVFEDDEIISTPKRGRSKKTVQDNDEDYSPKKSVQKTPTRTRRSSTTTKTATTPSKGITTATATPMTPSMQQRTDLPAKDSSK

[4] = target: T2, DmOrc1 IDR; test: EMSA; unphosphorylated, compared with pOrc1IDR; label not stated; EMSA: 50 mM HEPES pH 7.5, 150 mM K-glutamate, 10% glycerol, 1 mM BME, 2 nM DNA, RT 20 min, 1% agarose; FP: same with 150 or 300 mM K-glutamate, 5 mM MgOAc, 0 or 1 mM ATP, RT 30 min; details: protein: recombinant; tags: His6-MBP removed by TEV; blunt (60-bp duplex)
[5] = target: T4, DmOrc1 IDR delta1 (Drosophila melanogaster, UniProt O16810 247-549, del187-246); test: EMSA; EMSA: 50 mM HEPES pH 7.5, 150 mM K-glutamate, 10% glycerol, 1 mM BME, 2 nM DNA, RT 20 min, 1% agarose; FP: same with 150 or 300 mM K-glutamate, 5 mM MgOAc, 0 or 1 mM ATP, RT 30 min; details: protein: recombinant; tags: His6-MBP removed by TEV; blunt (60-bp duplex)
T4 sequence: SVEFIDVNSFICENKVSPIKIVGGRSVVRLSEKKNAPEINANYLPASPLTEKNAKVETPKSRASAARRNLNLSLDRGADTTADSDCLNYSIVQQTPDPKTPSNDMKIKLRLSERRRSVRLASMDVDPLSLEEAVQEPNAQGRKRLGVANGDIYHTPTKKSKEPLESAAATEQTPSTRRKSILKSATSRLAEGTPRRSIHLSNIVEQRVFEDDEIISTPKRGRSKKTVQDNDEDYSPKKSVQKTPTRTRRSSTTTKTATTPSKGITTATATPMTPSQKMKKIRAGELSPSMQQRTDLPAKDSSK

[6] = target: T5, DmOrc1 IDR delta6 (Drosophila melanogaster, UniProt O16810 187-486, del487-549); test: as above; details: protein: recombinant; tags: His6-MBP removed by TEV; blunt (60-bp duplex)
T5 sequence: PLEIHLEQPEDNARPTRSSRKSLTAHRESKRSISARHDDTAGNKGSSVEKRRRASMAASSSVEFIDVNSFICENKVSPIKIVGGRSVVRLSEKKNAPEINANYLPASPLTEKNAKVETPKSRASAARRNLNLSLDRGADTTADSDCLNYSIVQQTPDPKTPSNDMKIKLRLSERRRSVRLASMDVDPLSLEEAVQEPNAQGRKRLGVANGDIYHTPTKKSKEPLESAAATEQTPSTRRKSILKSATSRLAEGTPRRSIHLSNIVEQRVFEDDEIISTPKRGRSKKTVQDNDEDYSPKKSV

[7] = target: T6, DmOrc1 IDR delta2 (Drosophila melanogaster, UniProt O16810 187-549, del247-306); test: as above; details: protein: recombinant; tags: His6-MBP removed by TEV; blunt (60-bp duplex)
T6 sequence: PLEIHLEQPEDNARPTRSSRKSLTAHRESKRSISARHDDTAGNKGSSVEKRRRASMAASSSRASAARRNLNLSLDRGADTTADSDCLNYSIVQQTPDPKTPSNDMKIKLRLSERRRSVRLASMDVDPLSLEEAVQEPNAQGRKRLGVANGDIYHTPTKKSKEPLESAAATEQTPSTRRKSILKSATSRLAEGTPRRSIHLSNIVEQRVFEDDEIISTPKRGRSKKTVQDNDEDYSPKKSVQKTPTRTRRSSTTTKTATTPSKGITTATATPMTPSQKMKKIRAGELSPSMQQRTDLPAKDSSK

[8] = target: T7, DmOrc1 IDR delta4 (Drosophila melanogaster, UniProt O16810 187-549, del367-426); test: as above; details: protein: recombinant; tags: His6-MBP removed by TEV; blunt (60-bp duplex)
T7 sequence: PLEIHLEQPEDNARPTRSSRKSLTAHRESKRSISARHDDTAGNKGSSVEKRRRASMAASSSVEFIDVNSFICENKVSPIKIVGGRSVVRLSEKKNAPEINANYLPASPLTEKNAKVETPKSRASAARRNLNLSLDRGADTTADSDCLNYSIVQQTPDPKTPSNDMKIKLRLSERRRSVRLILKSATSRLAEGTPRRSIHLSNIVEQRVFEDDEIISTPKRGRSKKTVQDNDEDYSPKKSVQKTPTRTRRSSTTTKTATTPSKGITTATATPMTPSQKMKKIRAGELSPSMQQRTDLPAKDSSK

[9] = target: T8, DmOrc1 IDR delta3 (Drosophila melanogaster, UniProt O16810 187-549, del307-366); test: as above; details: protein: recombinant; tags: His6-MBP removed by TEV; blunt (60-bp duplex)
T8 sequence: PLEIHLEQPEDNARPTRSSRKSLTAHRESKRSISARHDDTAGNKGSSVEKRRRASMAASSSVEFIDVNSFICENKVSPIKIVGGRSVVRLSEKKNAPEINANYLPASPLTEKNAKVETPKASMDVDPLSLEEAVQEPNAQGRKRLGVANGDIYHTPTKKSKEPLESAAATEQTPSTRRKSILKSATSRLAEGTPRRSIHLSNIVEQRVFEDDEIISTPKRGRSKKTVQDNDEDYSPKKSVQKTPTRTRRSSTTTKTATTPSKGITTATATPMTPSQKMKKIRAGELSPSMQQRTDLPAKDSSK

[10] = target: T9, DmOrc1 IDR delta5 (Drosophila melanogaster, UniProt O16810 187-549, del427-486); test: as above; details: protein: recombinant; tags: His6-MBP removed by TEV; blunt (60-bp duplex)
T9 sequence: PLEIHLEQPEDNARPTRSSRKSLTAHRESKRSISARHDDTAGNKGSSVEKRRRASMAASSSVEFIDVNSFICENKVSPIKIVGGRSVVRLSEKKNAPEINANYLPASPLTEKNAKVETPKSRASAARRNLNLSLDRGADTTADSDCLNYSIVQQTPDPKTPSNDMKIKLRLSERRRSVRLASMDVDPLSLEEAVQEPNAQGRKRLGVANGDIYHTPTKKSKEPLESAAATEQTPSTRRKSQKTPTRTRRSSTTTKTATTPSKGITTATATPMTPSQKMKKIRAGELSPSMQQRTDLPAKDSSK

B1: Cy5-dsDNA 60 bp (dsDNA)
DNA 1: GAAGCTAGACTTAGGTGTCATATTGAACCTACTATGCCGAACTAGTTACGAGCTATAACC
DNA 2: GGTTATAGCTCGTAACTAGTTCGGCATAGTAGGTTCAATATGACACCTAAGTCTAGCTTC
binding result [1]: binds | Kd [2]: 15 ± 4 nM | Kd [3]: 8 ± 2 nM | Kd [4]: 21 nM | Kd [5]: < 100 nM | Kd [6]: < 100 nM | Kd [7]: < 100 nM | Kd [8]: 62 ± 26 nM | Kd [9]: < 100 nM | Kd [10]: < 100 nM
